Measurements from patent US20220406376A1 (MacroGenics, published 2022).

Target: T1, extracellular portion of human CD137 fused to a histidine-containing peptide (human, UniProt Q07011 24-186)
T1 construct: extracellular domain; also called huCD137; His-tagged soluble human CD137
Test: Attana Cell A200 QCM; antibody captured by anti-human IgG Fc; soluble human CD137-His; grade relative to (1B.3)

Row | Binder | binding result
1 | hCD137 MAB-3 (1B.4) (antibody, V domains shown) VH: QVQLVQSGAEVKKPGASVKVSCKASGYTFTSYWINWVKQAPGQGLEWIGNIYPSDSYTNYNQKFKDKATITADKSTSTAYMELSSLRSEDTAVYYCTRDYGSAYSMSTWGQGTTVTVSS VL: DIQMTQSPSSLSASVGDRVTITCQASQDISNYLNWYQQKPDKTVKLLIYYTSRLRSGVPSRFSGSGSGTDFTFTISSLQPEDIATYFCQQGDTLPYTFGQGTKLEIK | binds
2 | hCD137 MAB-3 (1B.10) (antibody, V domains shown) VH: QVQLVQSGAEVKKPGASVKVSCKASGYTFTSYWINWVKQAPGQGLEWIGNIYPSDSYTNYNQKFKDKATITADKSTSTAYMELSSLRSEDTAVYYCTRDYGSAYSMSTWGQGTTVTVSS VL: DIQMTQSPSSLSASVGDRVTITCRPSQDISNYLNWYQQKPDKTVKLLIYYTTRLRSGVPSRFSGSGSGTDFTFTISSLQPEDIATYFCQQGDTLPYTFGQGTKLEIK | binds
3 | hCD137 MAB-3 (1B.6) (antibody, V domains shown) VH: QVQLVQSGAEVKKPGASVKVSCKASGYTFTSYWINWVKQAPGQGLEWIGNIYPSDSYTNYNQKFKDKATITADKSTSTAYMELSSLRSEDTAVYYCTRDYGSAYSMSTWGQGTTVTVSS VL: DIQMTQSPSSLSASVGDRVTITCRPSQDISNYLNWYQQKPDKTVKLLIYYTSRARSGVPSRFSGSGSGTDFTFTISSLQPEDIATYFCQQGDTLPYTFGQGTKLEIK | binds
4 | hCD137 MAB-3 (1E.4) (antibody, V domains shown) VH: QVQLVQSGAEVKKPGASVKVSCKASGYTFTSYWINWVRQAPGQGLEWIGNIYPSDSYTNYNQKFKDKATITADKSTSTAYMELSSLRSEDTAVYYCTRDYGSAYSMSTWGQGTTVTVSS VL: DIQMTQSPSSLSASVGDRVTITCQASQDISNYLNWYQQKPDKTVKLLIYYTSRLRSGVPSRFSGSGSGTDFTFTISSLQPEDIATYFCQQGDTLPYTFGQGTKLEIK | binds
5 | hCD137 MAB-3 (1B.5) (antibody, V domains shown) VH: QVQLVQSGAEVKKPGASVKVSCKASGYTFTSYWINWVKQAPGQGLEWIGNIYPSDSYTNYNQKFKDKATITADKSTSTAYMELSSLRSEDTAVYYCTRDYGSAYSMSTWGQGTTVTVSS VL: DIQMTQSPSSLSASVGDRVTITCRPSQDISNYLNWYQQKPDKTAKLLIYYTSRLRSGVPSRFSGSGSGTDFTFTISSLQPEDIATYFCQQGDTLPYTFGQGTKLEIK | binds
6 | hCD137 MAB-3 (1B.13) (antibody, V domains shown) VH: QVQLVQSGAEVKKPGASVKVSCKASGYTFTSYWINWVKQAPGQGLEWIGNIYPSDSYTNYNQKFKDKATITADKSTSTAYMELSSLRSEDTAVYYCTRDYGSAYSMSTWGQGTTVTVSS VL: DIQMTQSPSSLSASVGDRVTITCRPSQDISNYLNWYQQKPDKTVKLLAYYTGRLRSGVPSRFSGSGSGTDFTFTISSLQPEDIATYFCQQGDTLPYTFGQGTKLEIK | binds
7 | hCD137 MAB-3 (1B.11) (antibody, V domains shown) VH: QVQLVQSGAEVKKPGASVKVSCKASGYTFTSYWINWVKQAPGQGLEWIGNIYPSDSYTNYNQKFKDKATITADKSTSTAYMELSSLRSEDTAVYYCTRDYGSAYSMSTWGQGTTVTVSS VL: DIQMTQSPSSLSASVGDRVTITCRPSQDISNYLNWYQQKPDKTVKLLIYYTGRLRSGVPSRFSGSGSGTDFTFTISSLQPEDIATYFCQQGDTLPYTFGQGTKLEIK | binds
8 | hCD137 MAB-3 (1E.3) (antibody, V domains shown) VH: QVQLVQSGAEVKKPGASVKVSCKASGYTFTSYWINWVRQAPGQGLEWIGNIYPSDSYTNYNQKFKDKATITADKSTSTAYMELSSLRSEDTAVYYCTRDYGSAYSMSTWGQGTTVTVSS VL: DIQMTQSPSSLSASVGDRVTITCRPSQDISNYLNWYQQKPDKTVKLLIYYTSRLRSGVPSRFSGSGSGTDFTFTISSLQPEDIATYFCQQGDTLPYTFGQGTKLEIK | binds
